Test results published in PMC4132019.

Target: CRM1-HA (chromosome region maintenance 1) (human (HeLa cell cDNA)) (UniProt O14980)
Assay: pull-down

UniProt O14980, sequence (O14980 whole entry): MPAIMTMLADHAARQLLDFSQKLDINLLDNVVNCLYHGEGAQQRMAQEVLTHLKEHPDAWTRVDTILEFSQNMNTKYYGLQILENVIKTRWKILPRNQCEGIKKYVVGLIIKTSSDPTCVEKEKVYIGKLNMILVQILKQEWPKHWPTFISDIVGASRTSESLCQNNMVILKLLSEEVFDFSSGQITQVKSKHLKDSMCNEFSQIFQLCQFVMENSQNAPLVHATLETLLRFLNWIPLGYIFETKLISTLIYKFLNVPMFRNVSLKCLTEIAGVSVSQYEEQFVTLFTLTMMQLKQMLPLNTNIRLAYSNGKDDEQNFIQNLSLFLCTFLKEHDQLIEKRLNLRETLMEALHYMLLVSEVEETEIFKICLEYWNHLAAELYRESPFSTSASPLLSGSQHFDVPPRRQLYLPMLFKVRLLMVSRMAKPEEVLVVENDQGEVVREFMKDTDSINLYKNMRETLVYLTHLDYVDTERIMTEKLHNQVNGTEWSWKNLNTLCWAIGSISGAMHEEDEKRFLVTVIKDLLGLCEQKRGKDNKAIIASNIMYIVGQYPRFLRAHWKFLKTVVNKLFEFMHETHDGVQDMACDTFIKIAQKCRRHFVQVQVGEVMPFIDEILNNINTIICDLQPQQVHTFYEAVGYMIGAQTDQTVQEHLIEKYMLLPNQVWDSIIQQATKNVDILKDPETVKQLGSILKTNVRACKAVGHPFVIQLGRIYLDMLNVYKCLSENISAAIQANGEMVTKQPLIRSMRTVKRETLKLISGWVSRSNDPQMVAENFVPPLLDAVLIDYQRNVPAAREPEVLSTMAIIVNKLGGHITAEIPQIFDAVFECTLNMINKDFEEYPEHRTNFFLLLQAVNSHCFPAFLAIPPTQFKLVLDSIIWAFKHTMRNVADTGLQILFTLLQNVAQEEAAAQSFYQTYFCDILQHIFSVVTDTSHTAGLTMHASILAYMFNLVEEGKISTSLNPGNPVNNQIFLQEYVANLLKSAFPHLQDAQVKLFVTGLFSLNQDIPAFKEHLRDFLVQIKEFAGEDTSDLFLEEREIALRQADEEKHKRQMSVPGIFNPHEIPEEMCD

With “NP-FLAG (wild-type nucleoprotein of influenza A/WSN/33) (from UniProt P15682 1-498) (natural protein)” the CRM1 binding (%WT) was 100 % of WT.
